Experimental data published in publication PMC3657558.

Target: CblC, full-length, His-tagged (UniProt Q9Y4U1)
Assay: native gel or EMSA

Sequence of UniProt Q9Y4U1 (Q9Y4U1 whole entry): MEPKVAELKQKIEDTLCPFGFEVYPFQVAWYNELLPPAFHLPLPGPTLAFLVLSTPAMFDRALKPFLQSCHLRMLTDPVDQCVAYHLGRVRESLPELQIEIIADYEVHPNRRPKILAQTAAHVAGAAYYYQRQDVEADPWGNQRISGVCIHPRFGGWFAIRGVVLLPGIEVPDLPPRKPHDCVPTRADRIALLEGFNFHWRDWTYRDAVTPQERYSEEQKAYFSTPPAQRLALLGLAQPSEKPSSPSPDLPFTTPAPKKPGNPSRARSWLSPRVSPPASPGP

full-length CblD, N-terminal 6xHis-tagged (from UniProt Q9H3L0 39-296) (natural protein)
stoichiometry N: 1 CblC:CblD
